From patent US6570069B1, “Nucleic acids encoding plant inhibitors of apoptosis and transgenic cells and plants expressing them” (priority 2000, dated 2003)

T1: caspase-3 (Homo sapiens, UniProt P42574)
T1 construct: His6 (C); made in house
T1 sequence (P42574 29-175 limits assumed): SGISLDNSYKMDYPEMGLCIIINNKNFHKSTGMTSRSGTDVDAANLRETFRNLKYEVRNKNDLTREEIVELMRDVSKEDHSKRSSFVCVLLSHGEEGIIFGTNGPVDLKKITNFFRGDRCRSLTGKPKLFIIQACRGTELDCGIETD
T1 sequence (P42574 176-277 limits assumed): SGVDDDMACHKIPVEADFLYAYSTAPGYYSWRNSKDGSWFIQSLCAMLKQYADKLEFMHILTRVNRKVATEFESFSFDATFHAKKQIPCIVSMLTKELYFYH

T2: caspase-7 (Homo sapiens, UniProt P55210)
T2 construct: His6 (C); made in house
T2 sequence (P55210 24-198 limits assumed): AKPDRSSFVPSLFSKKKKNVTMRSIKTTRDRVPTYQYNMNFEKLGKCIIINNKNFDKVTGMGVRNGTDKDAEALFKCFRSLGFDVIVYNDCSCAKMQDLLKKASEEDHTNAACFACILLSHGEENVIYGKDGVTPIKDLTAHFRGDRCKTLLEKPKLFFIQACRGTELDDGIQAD
T2 sequence (P55210 207-303 limits assumed): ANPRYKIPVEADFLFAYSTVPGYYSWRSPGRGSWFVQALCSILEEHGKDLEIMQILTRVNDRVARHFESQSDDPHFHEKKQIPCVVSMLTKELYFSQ

B1: SfIAP: cellular IAP cloned from Spodoptera frugiperda, protein of 377 amino acids (SEQ ID NO:3); GST-fusion when recombinant (protein, listed as Spodoptera frugiperda)
chain: MWSCSLPCWNTKKSGLQMDITKVASNGSSSTLTLFKSGSLEAKIRPLAPLMLPTPSYDSNAGSPSLSPSTPCSSSSFSIDKTDNHDTFGFSADTVDMRKEDERMKTFEKWPVSFLSGEQLARNGFYYLGRRDEARCAFCKVEIMRWVEGDDPAKDHQRWAPQCPFVRKLNGTAAADTGSSGQDECGARAAPSGTSPPRMAGPVHPRYASEAARLRSFKDWPRCMRQKPEELAEAGFFYTGQGDKTKCFYCDGGLKDWENHDVPWEQHARWFDRCAYVQLVKGREYVQKVISEACEVSASEAERDVAPARTAEPSPPAEAPENSVDDSKLCKICYAEERNVCFVPCGHVVACAKCALAADKCPMCRRTFQNAVRLYFS
modifications: GST fusion when recombinant; fall armyworm inhibitor of apoptosis protein (SfIAP)
B2: CpIAP: baculoviral (CpGV) inhibitor of apoptosis protein; complete ORF expressed myc-tagged or as GST-fusion (protein)
chain: MSDLRLEEVRLNTFEKWPVSFLSPETMAKNGFYYLGRSDEVRCAFCKVEIMRWKEGEDPAADHKKWAPQCPFVKGIDVCGSIVTTNNIQNTTTHDTIIGPAHPKYAHEAARVKSFHNWPRCMKQRPEQMADAGFFYTGYGDNTKCFYCDGGLKDWEPEDVPWEQHVRWFDRCAYVQLVKGRDYVQKVITEACVLPGENTTVSTAAPVSEPIPETKIEKEPQVEDSKLCKICYVEECIVCFVPCGHVVACAKCALSVDKCPMCRKIVTSVLKVYFS
modifications: left off: a dimerising Fc or GST
notes: complete ORF expressed myc-tagged or as GST-fusion

Experiments:
[1] = system: DEVD-cleaving proteases in cell extracts treated with caspase-8; assay: Cell-free caspase activation induced by active caspase-8 in HEK 293 cytosolic extracts; assay type: biochemical, human; settings: recombinant protein
Experimental: (§1) Caspase activity was assayed by release of 7-amino-4-trifluoromethyl-coumarin (AFC) from Ac-DEVD or Ac-LEHD-containing synthetic peptides (Calbiochem) using continuous-reading instuments as described (Quan, L. T. et al., (1995) J. Biol. Chem. 270:10377-10379).
Cytosolic extracts were prepared as described (Deveraux, Q., Takahashi, R., Salvesen, G. S. & Reed, J. C. (1997) Nature 388, 300-303) using human embryonic kidney (HEK) 293 cells. Cells were washed with ice-cold buffer A (20 mM HEPES pH 7.5, 10 mM KCl, 1.5 mM MgCl2, 1 mM EDTA and 1 mM DTT), suspended in 1 volume of buffer A, incubated on ice for 20 mins, and then disrupted by 15 passages through a 26-gauge needle. Cell extracts were purified by centrifugation at 15000 g for 12 mins and supernatants were stored at −80 ° C. For initiating caspase activation, either 100 nM of purified recombinant caspase-8 or 1 μM horse heart cytochrome c (Sigma) together with 1 mM dATP was added to extracts (Deveraux, Q. L., et al., (1998) EMBO J. 17, 2215-2223).
To further explore the mechanisms by which SfIAP and CpIAP inhibit mammalian apoptosis, a cell-free system in which exogenously added active caspase-8 or cyto c induces activation of caspase-3 and similar proteases, as measured by hydrolysis of Ac-DEVD-AFC (Quan, L. T. et al., (1995) J. Biol. Chem. 270, 10377-10379) was used. […]

caspase-3 = target: T1, caspase-3; assay: Inhibition of recombinant purified caspase-3; assay type: biochemical, mammalian; settings: in vitro
Experimental: (§2) pGEX4T-1-SfIAP and pGEX4T-1 -CpIAP plasmids were introduced into E. coli strain BL21 (DE3) containing the plasmid pT-Trx. GST fusion proteins were obtained by induction with 0.05 mM IPTG at 25° C. for 8 hours, then purified using glutathione-Sepharose, essentially as described (Deveraux, Q., Welsh, K. & Reed, J. Methods of Enzymology in press). Caspases-3, and -7, containing C-terminal His6-tags, and caspase-8 containing an N-terminal His6-tag were purified as described previously (Stennicke, H. R. & Salvesen, G. S. (I1997) J. Biol. Chem. 272, 25719-25723; Stennicke, H., et al., (1998) J. Biol. Chem. 273, 27084-27090; Stennicke, H., et al., (1999) J. Biol. Chem. 274, 8359-8362). Caspase-9 lacking the CARD domain (ΔCARD-caspase-9) was constructed by truncating the cDNA and introducing a start codon substituting Val139. […] Concentrations of purified enzymes were determined from absorbance at 280 nm based on the molar absorption coefficients: caspase-3 (A280=26,000M−1 cm−1), caspase-7 (A280=24,500 M−1 cm−1), caspase-9 (A280=30,010M−1 cm−1).
as §1

caspase-7 = target: T2, caspase-7; assay: Binding to recombinant purified caspase-7; design: species or system mammalian
Experimental: as §2, with “Val139. The resulting cDNA was subcloned into pET-23b and expressed in BL21 (DE3), yielding fully processed enzyme when cells were induced using 0.2 mM IPTG at OD600=0.6 for 4 hrs (Stennicke, H., Deveraux, Q., Humike, E., Reed, J., Dixit, V. & Salvesen, G. (1999) J. Biol. Chem. 274, 8359-8362).” for “Val139.”, “cm−1). […]” for “cm−1).”

| Molecule | effect on DEVD-cleaving proteases [1] | inhibition of caspase-3 (caspase-3) | binding to caspase-7 (caspase-7) |
| --- | --- | --- | --- |
| B1 | no effect on DEVD-cleaving proteases | nor inhibited | neither bound |
| B2 | no effect on DEVD-cleaving proteases | nor inhibited | neither bound |
